Assay in all cases: cell_activity
For series [1], the system named is ZFP 33074-KOX (ZFP-TF repressor) (synthetic construct). Particulars: lentiviral, CAG17/48 neurons; apoptosis ~50% to 20%; AAV in Q175 mice reduced mHtt aggregates (P<0.001); indirect evidence of binding; scale: % increase of intracellular ATP in HD neurons.
Series [2] has as its system ZFP 30645 (ZFP-TF repressor) (synthetic construct). The following applies: AAV, Q175 mouse striatum (~179 CAG), injected at 2 months; indirect evidence of binding.
Series [3] has as its system ZFP 30640 (ZFP-TF repressor) (synthetic construct). The following applies: AAV, Q175 mouse striatum (~179 CAG), injected at 2 months; indirect evidence of binding.

Bounds are passed on as bounds.

For the sequence “AGCAGCAGCAGCAGCAGCAGCAGCAGCA (double strand) [Htt CAG repeat, 33074 target]”, the activity in series [1] was found to be 60. Sequence “CAGCAGCAGCAGCAGCAGCAGCAGCAGC (double strand) [Htt CAG repeat, 30645 target]” yielded an activity (% reduction of nuclear Htt aggregates) in series [2] of more than 90. In the case of “CAGCAGCAGCAGCAGCAGCAGCAGCAGC (double strand) [Htt CAG repeat, 30640 target]”, in series [3], the activity (% reduction of nuclear Htt aggregates) was more than 90.

The values above are taken from patent US11110154.
